Data from article PMC9769707.

Target: T1, Dnr (Pseudomonas aeruginosa PAO1) (UniProt Q51441)
T1 sequence: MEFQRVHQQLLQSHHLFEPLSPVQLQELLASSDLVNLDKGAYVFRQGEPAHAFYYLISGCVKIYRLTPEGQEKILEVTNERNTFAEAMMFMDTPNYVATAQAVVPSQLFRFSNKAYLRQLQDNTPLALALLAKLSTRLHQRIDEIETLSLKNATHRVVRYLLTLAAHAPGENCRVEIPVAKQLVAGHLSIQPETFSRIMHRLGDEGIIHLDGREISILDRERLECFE
Experiment: EMSA

With “GGCGGCTGACTCCGATGCAATGGTGGGGGAGCAATGCATCGGGGGGATGCCCTGATCATCGCAGTCCCTTGCTGGATCACAGGCATGACAGGGAAAACGGCGCAGAACCTGTCCTTGGCGATCCCTCTGGTCCGTCACTGGCGACGAACTACAAAAGACGCTAGAACAGGTCTATGGATTTGCAAAATAAAATTTTCGTTGGACTCCC (double strand) [hcp3 promoter fragment]” the binding was “no binding”.
